Test results: the RNAGym collection of RNA variant scans (doi:10.7554/elife.90254)

B1: LINE1-full (parent)
chain: UACGUAGGUGGUUUUCCCCUGAUAGUGCUAAGGGGGCCUGGAAGUUUGGACUGGGCAGAGCUCAACACAGCGUGGCAAAGUGGCUGUGGCUAGACUGCCUCUCUGGAUUCCUCGUCACUCAGCAGGGCAUCUCUGAGAGAAAUGCC

Variants of: B1
Experiment: self-cleavage, relative activity (ratio to wild type); higher = more cleavage; in vitro, sequencing; the parent is a self-cleaving ribozyme

Variant | self-cleavage
UACGUAGGUGGUUCUCCCCUGAUAGUGCUAAGGGGGCCUGGAAGUUUGGACUGGGCAGAGCUCAACACAGCGUGGCAAAGUGGCUGUGGCUAGACUGUCUCUCUGGAUUCCUCGUCACUCAGCAGGGCAUCUCUGAGAGAAAUGCC | 0.07
UACGUAGGUGGUUUUCCCCUGAUAGUGCUAACGGGGCCUGGAAGUUUGGACUGGGCAGAGCUCAACACAGCGUGGCAAAGUGGCUGUGGCUAGACUGCCUCUCUGGAUUCCUCGUCACUCAGCAGGGCAUCUCUGAGAGAAGUGCC | 1.58
UACGUAGGUGGUUUUCCCCUGAUAGUGCUAAGGGGGCCUGGAAGUUUGGACUGGGCAGAGCUCAACACAGCGUGGCAAAGUGGCUGAGGCUAGACUGCCUCUCUGGAUUCCUCGUCGCUCAGCAGGGCAUCUCUGAGAGAAAUGCC | 0.09
UACGUAGGUGGGUUUCCCCUGAUAGUGCUAAGGGGGCCAGGAAGUUUGGACUGGGCAGAGCUCAACACAGCGUGGCAAAGUGGCUGUGGCUAGACUGCCUCUCUGGAUUCCUCGUCACUCAGCAGGGCAUCUCUGAGAGAAAUGCC | 1.05
UACGUAGGAGGUUUUCCCCUGAUAGUGCUAAGGGGGCCUGGAAGUUUGGACUGGGCAGAGCUCAACACAGCGUGGCAAAGUGGCUGUGGCUAGACUGCCUCUUUGGAUUCCUCGUCACUCAGCAGGGCAUCUCUGAGAGAAAUGCC | 0.84
UACGUAGGUGGUUUUCCCCUGAUAGUGCUAAGGGGGCCUGGAAGUAUGGACUGGGCAGAGCUCAACACAGCGUGGCAAAGUGGCUGUGGCUAGACUGCCUCUCUGGAUUCCUCGUCACACAGCAGGGCAUCUCUGAGAGAAAUGCC | 1.42
UACGUAGGUGGAUUUCCCCUGAUAGUGCUAAGGGGGCCUGGAAGUUUGGACUGGGCAGAGCUCAACACAGCGUGGCAAAGUGGCUGUGGCUAGACUGCCUCUCUGGAUUCCUCGCCACUCAGCAGGGCAUCUCUGAGAGAAAUGCC | 1.21
UACGUAGGUGGUUUUCCCCUGAUAGUGCUAUGGGGGCCUGGAAGUUUGGACUGGGCAGAGCUCAACACAGCGUGGCAAAGUGGCUGUGGCUAGACUGCCUCUCUGGAUUCCUCGUCACUCAGCAGGGCAACUCUGAGAGAAAUGCC | 1.53
UACGUAGGUGGUUUUCCCCUGAUAGUGCUAAGGGGGCCUGGAAGUUUGGACUGGGCAGAGCUCAACACAGCGUGGCAAAGUGGCUAUGGCUAGACUGCCUCUCUGGAUUCCUCGUCACUCAGCAGGGCAUCUCUGAGGGAAAUGCC | 0.13
UACGUAGGUGGUUUUCCCCUGAUAGUGCUAAGGGGGCCUGGAAGUUUGGACUGGGCAGAGCUCAACACAGCGUGGCAAAGUGGCUGUGGCUAGACUGCCUCUCUGGAUUCCUCGUCACUCAGCAGGGCAUCACUGAGAGAAAUACC | 1.82
UACGUAGGUGGUUUUCCCCUGAUAGUGCUAAGGGGGCCUGGAAGUUUGGACUGGGCAGAGCUCAACACAGCGUGGCAAAGUGGCUGUGGCUAGACAGCCACUCUGGAUUCCUCGUCACUCAGCAGGGCAUCUCUGAGAGAAAUGCC | 0.07
UACGUAGGUGGUUUUCCCCUGAUAGUGCGAAGGGGGCCUGGAAGUUUGGACUGGGCAGAGCUCAACACAGGGUGGCAAAGUGGCUGUGGCUAGACUGCCUCUCUGGAUUCCUCGUCACUCAGCAGGGCAUCUCUGAGAGAAAUGCC | 0.23
UACGUAGGUGGUUUUCCCCUGAUAGUGCUAAGGGGGCCUGGAAGUUUGGACUGGGCAGAGUUCAACACAGCGUGGCAAAGUGGCUGUGGCUAGACUGCCUCUCUGGAUUCCUCGUCACUCAGCAGGGCAUCUCUGAGAGGAAUGCC | 0.03
UACGUAGGUGGUUUUCCCCUGAUAGUACUAAGGGGGCCUGGAAGUUUGGACUGGGCUGAGCUCAACACAGCGUGGCAAAGUGGCUGUGGCUAGACUGCCUCUCUGGAUUCCUCGUCACUCAGCAGGGCAUCUCUGAGAGAAAUGCC | 0.04
UACGUAGGUGGUUUUCCCCUGACAGUGCUAAGGGGGCCUGGAAGUAUGGACUGGGCAGAGCUCAACACAGCGUGGCAAAGUGGCUGUGGCUAGACUGCCUCUCUGGAUUCCUCGUCACUCAGCAGGGCAUCUCUGAGAGAAAUGCC | 0.92
UACGUAAGUGGUUUUCCCCUGAUAGUGCUAAGGGGGCCUGGAAGUUUGGACUGGGCAGAGCUCAACACAGCGUGGCAAAGUGGCUGUGGCUAGACUGCCUCUCUGGAUACCUCGUCACUCAGCAGGGCAUCUCUGAGAGAAAUGCC | 1.49
UACGUAGGUUGUUUUCCCCUGAUAGUGCUAAGGGGGCCUGGAAGUUUGGACUGGGCAGAGCUCAACACAGCGUGGCAAAGUGGCUGUGGCUAGACUGCCUCUCUGGAUUCCCCGUCACUCAGCAGGGCAUCUCUGAGAGAAAUGCC | 0.93
UACGUAGGUGGUUUUCCCCUGAUAGUGAUAAGGGGGCCUGGAAGUUUGGACUGGGCAGAGCUCAACACAGCGUGGCAAAGUGGCCGUGGCUAGACUGCCUCUCUGGAUUCCUCGUCACUCAGCAGGGCAUCUCUGAGAGAAAUGCC | 0.17
UACGUAGGUGGUUUUCCCCUGAUAGUGCUAAGGGGGCCUGGAAGCUUGGACUGGGCAGAGCUCAACACAGCGUGGCAAAGUGGCUGUGGCUAGACCGCCUCUCUGGAUUCCUCGUCACUCAGCAGGGCAUCUCUGAGAGAAAUGCC | 0.12
UACGUAGGUGGUUUUCCCCUGAUAGUGCUAAGGGGGCCUGGAAGUUUGGACUGGGCAGAGCUCAAUACAGCGUGGCAAAGUGGCUGUGGCUAGACUGCCUCUCCGGAUUCCUCGUCACUCAGCAGGGCAUCUCUGAGAGAAAUGCC | 0.05

Variant | self-cleavage
UACGUAGGUGGUUUCCCCCUGAUAGUGCUAAGGGGGCCUGGAAGUUUGGACUGGGCAGAGCUCAACACAGCGUGGCAAAGUGGCUGUGGCUAGACUGCCUCUCUGGAUUCCUCGUCCCUCAGCAGGGCAUCUCUGAGAGAAAUGCC | 2.07
UACGUAGGUGGUUUUCCCCUGAUAGUGCUAAGGGGCCCUGGAAGUUUGGACAGGGCAGAGCUCAACACAGCGUGGCAAAGUGGCUGUGGCUAGACUGCCUCUCUGGAUUCCUCGUCACUCAGCAGGGCAUCUCUGAGAGAAAUGCC | 0.45
UACGUAGGUGGUUUUCCCCUGAUAGUGCUAAGGGGGCCUGGAAGUUUGGACUGGGCAGAGCUCAACACAGUGUGGCAAAGUGGCUGUGGCUAGACUGCCUCUCUGGAUUCCUCGUCACUCAGCAGGGCACCUCUGAGAGAAAUGCC | 1
UACGUAGGUGGUUUUCCCCUGAUAGUGCUAAGGGGGCCUGGAAGUUUGGACUGGGCAGAGCUCAACGCUGCGUGGCAAAGUGGCUGUGGCUAGACUGCCUCUCUGGAUUCCUCGUCACUCAGCAGGGCAUCUCUGAGAGAAAUGCC | 0.06
UACGUAGGUGGUUUUCCCCUGAUAGUGCUAAGGGGGCCUGGAAGUUUGGACUGGGCAGAACUCAACACAGCGUGGCAAAGUGGCCGUGGCUAGACUGCCUCUCUGGAUUCCUCGUCACUCAGCAGGGCAUCUCUGAGAGAAAUGCC | 0.01
UACGUAGGUGGUUUUCCCCUGAUAGUGCUAAGGGGGCCUGGAAGUUUGGACCGGGCAGAGCUCAACACAGCGUGGCAAAGUGGCUGUGGCUAGACUGCCUCUCUGGAUUCCUCGUCACUCAGCAGGGCAUCUCUGAGGGAAAUGCC | 1.48
UACGUAGGUGGUUUUCCCCUGAUAGUGCUAAAGGGGCCUGGAAGUUUGGACAGGGCAGAGCUCAACACAGCGUGGCAAAGUGGCUGUGGCUAGACUGCCUCUCUGGAUUCCUCGUCACUCAGCAGGGCAUCUCUGAGAGAAAUGCC | 1.28
UACGUAGGUGGUUUUCCCCUGAUAGUGCUAAGGGGGCCUGGAAGUUUGGACUGGGCAGAGCUCAACACAGCGGGGCAAAGUGGCUGUGGCCAGACUGCCUCUCUGGAUUCCUCGUCACUCAGCAGGGCAUCUCUGAGAGAAAUGCC | 0.29
UACGUAGGUGGUUUUCCCCUGAUAGUGCUAAGGGGGCCUGGAAGUUUGGACUGGGCAGAGCUCAACACAGCGUGGCUAAGUGGCUGUGGCUAGACUGCCUCUCUGGAUUCCUCGUCACUCAGCAGGGCAGCUCUGAGAGAAAUGCC | 1.86
UACGUAGGUGGUUUUCCCCUGAUAGUGCUAAGGGGGCCUGGAAGUUUGGACUGGGCAGAACUCAUCACAGCGUGGCAAAGUGGCUGUGGCUAGACUGCCUCUCUGGAUUCCUCGUCACUCAGCAGGGCAUCUCUGAGAGAAAUGCC | 0.05
UACGUAGGUGGUUUUCCCCUGAUAGUGCUAAGGGGGCCUAGAAGUUUGGACUGGGCAGAGCUCAACACAGCGUGGCAAAGUGGCUGUGGCUAGACUGCCUCUCUGAAUUCCUCGUCACUCAGCAGGGCAUCUCUGAGAGAAAUGCC | 1.23
UACGUAGGUGGUUUUCCCCUGAUAGUGCUAAGGGGGCCUGGAAGUGUGGACUGGGCAGAGCUCAACACAGCGUGGCAAAGUGGCUGUGGCUAGACUGCCUCUCUGGAUUCCUCGUCACUCAGCAGGGCAUCUCUGAGAGAAACGCC | 1.43
UACUUAGGUGGUUUUCCCCUGAUAGUGCUGAGGGGGCCUGGAAGUUUGGACUGGGCAGAGCUCAACACAGCGUGGCAAAGUGGCUGUGGCUAGACUGCCUCUCUGGAUUCCUCGUCACUCAGCAGGGCAUCUCUGAGAGAAAUGCC | 1.11
UGCGUAGGUGGUUUUCCCCCGAUAGUGCUAAGGGGGCCUGGAAGUUUGGACUGGGCAGAGCUCAACACAGCGUGGCAAAGUGGCUGUGGCUAGACUGCCUCUCUGGAUUCCUCGUCACUCAGCAGGGCAUCUCUGAGAGAAAUGCC | 0.74
UACGUAGGUGGUUUUCCCCUGAUAGCGCUAAGGGGGCCUGGAAGUUUGGACUGGGCAGAGCUCAACACAGCGUGGCCAAGUGGCUGUGGCUAGACUGCCUCUCUGGAUUCCUCGUCACUCAGCAGGGCAUCUCUGAGAGAAAUGCC | 1.61
UACGUAGGUGGUUUUCCCCUGAUAGUGCUAAGGGGGCCUGGAAGUUUGGACUGGGCAGAGCUCAACACAGCGUGGCAAAGUGGCUGUGGCUAGGCUGCCUCUCUAGAUUCCUCGUCACUCAGCAGGGCAUCUCUGAGAGAAAUGCC | 0.18
UACGUAGGUGGUUUUCCCCUGAUAGUGCUAAGGGGGCCUGGAAGGUUGGACUGGGCAGAGCUCAACACAGCGUGGCAAAGUGGCUGUGGCUAGACUGCCUCUCUGGAUUCCUCGUCACUCAGCAGGGCAUCUCUGAGAGGAAUGCC | 1.33
UACGUAGGUGGUUUUCCCCUGAUAGUGCUAAGGGGGCCUGGAAGUUUGGACUGGGCAGAGCUCAACACAGCGUGGCAAAGUGACUGUGGCUAGACCGCCUCUCUGGAUUCCUCGUCACUCAGCAGGGCAUCUCUGAGAGAAAUGCC | 0.11
UACGUAGGUGGUUUUCCCCUGAUAGUGCUAAGGGGGCCUGGAAGUUUGGACUGGGAAGAGCUCAACACAGCGUGGCAAAGUGGCUGUGGCUAGACAGCCUCUCUGGAUUCCUCGUCACUCAGCAGGGCAUCUCUGAGAGAAAUGCC | 0.03
